Target: T1, SARS-CoV-2 receptor-binding domain (RBD), recombinant antigen (SARS-CoV-2, UniProt P0DTC2)
T1 construct: source: bought: Wantai BioPharm (microplates precoated with recombinant RBD)
Test: ELISA
Settings: both partners purified

B1: neutralizing antibody X10 (mouse monoclonal antibody) (antibody, V domains shown)
VH: EVQLQQSGPELVKPGASVKISCKTSGYTFTEYTLHWVKQSHGKSLEWIGGFDPNFGGATYNLKFEDKATLTVDKSSNTAYMELRSLTSEDSAVFYCARGDYGTSYAYFDFWGQGTTLTVSS
VL: DIVLTQSPASLAVSLGQRAAISCRASQSVSTSSHNYVHWYQQRPGQPPKLLIKYASNLECGVPARFSGSGSGTDFTLNIHPVEEEDSAAYYCQHSWEIPYTFGGGTKLEIK
notes: also called nAb X10; cluster 2 representative; source: mouse hybridoma, ascitic fluid, purified (protein A agarose)
  binding result: binds

B2: neutralizing antibody X17 (mouse monoclonal antibody) (antibody, V domains shown)
VH: QVQLQQSGAELARPGASVKLSCKASGYTFTFYWMQWLKQRPGQGLEWIGAIYPGDGDTRYTQRFKDKATLTADKSSSTAYIQLSSLASEDSAVYYCAGGEYDNYGFDYWGQGTTLTVSS
VL: DIQMTQTTSSLSASLGDRVTISCRASQDISNYLNWYQQKPDGTVKLLIYYTSRLHSGVPSRFSGSGSGTDYSLTISNLEQEDIATYFCQQGTTLPYTFGGGTKLEIK
notes: also called nAb X17; cluster 1 representative; source: mouse hybridoma, ascitic fluid, purified (protein A agarose)
  binding result: binds
